Reference: patent US20110212108A1, “NEUREGULIN/ERBB SIGNALING AND INTEGRIN” (THE REGENTS OF THE UNIVERSITY OF CALIFORNIA, priority 2008, published 2011)
Residue numbers refer to the chain shown, from its start. Entries after “also recorded” stand apart in the source; their conditions may differ. Read-outs that look alike come from different tables or passages of the source.

B1: WT NRG1α (175-241): wild type human neuregulin 1 fragment, residues 175-241 of SEQ ID NO:4 (SEQ ID NO:5), entire EGF-like motif and α domain (protein)
chain: GTSHLVKCAEKEKTFCVNGGECFMVKDLSNPSRYLCKCQPGFTGARCTENVPMKVQNQEKAEELYQK
modifications: integrin-binding site within human neuregulin, residues 175-241of human neuregulin 1alpha, long version
B2: 3KE (175-241): NRG1α (175-241) with Lys181/Lys185/Lys187 mutated to Glu, SEQ ID NO:6 (3KE, long version) (protein)
chain: B1 chain with K7E, K11E, K13E
modifications: integrin-binding site within human neuregulin, residues 175-241of human neuregulin 1alpha, long version, 3KE mutant

How the values were obtained:
[1] = biological target: T1, K562 cells that express human αvβ3 (αvβ3-K562) (Homo sapiens, UniProt P05106+P06756); test: Cell adhesion assay, αvβ3-K562 cells; assay type: cell-based
T1 construct: expressed in transfected cells; host or cells: K562
Description: FIG. 5. […] Adhesion assays was performed using αvβ3-K562 (left) or mock transfected cells (right) as described herein. The data is shown as means+/−SEM of triplicate experiments.
CHO or K562 cells expressing different recombinant integrins were previously known and available (Zhang et al. 1998; Tarui et al. 2006). Labeling of proteins with FITC or […] was performed according to manufacturers' instructions. Flow cytometry was performed as described above. Also, adhesion assays as described above were used to confirm the findings using flow cytometry.
(§1) Cell adhesion and soluble integrin binding assays were performed as described previously (Mori, et al., 2008). NRG1α (175-241) was immobilized to wells of 96-well microtiter plate overnight at 4° C. in 0.1 M carbonate buffer, pH 2 9.4. Remaining protein binding sites were blocked by incubating with 200 μl of 0.1% BSA in PBS for 60 min at room temperature. Wells were then incubated with soluble integrin αvβ3 in 50 μl in Hepes-Tyrode's buffer supplemented with 1 mM Mn2+ at room temperature for 60 min. After rinsing the wells with the same buffer, bound integrins were determined by horseradish peroxidase (HRP)-conjugated anti-His tag mouse IgG and substrate 3,3′,5,5′-tetramethylbenzidine of HRP.

integrin αvβ3 = biological target: T2, integrin αvβ3 (Homo sapiens, UniProt P05106+P06756); test: ELISA-type binding of soluble recombinant integrin αvβ3 to immobilized NRG1 fragments; settings: soluble αvβ3, 1 mM Mn2+, room temperature
T2 construct: Soluble recombinant integrin αvβ3 (5 μg/ml) was added to the wells; made in house
Description: FIG. 1. […] The isolated EGF-like domain of Wt NRG1 was immobilized to wells of 96-well titer plates. The concentrations of the coating solution are shown. Soluble recombinant integrin αvβ3 (5 μg/ml) was added to the wells in the presence of 1 mM Mn^2+ and incubated for 2 h at room temperature. After washing the wells bound αvβ3 was determined by using anti-β3 antibody and HRP-conjugated anti-mouse IgG. The data is shown as means+/−SEM of triplicate experiments. FIG. 7. […] Wt GST-NRG1 (175-222) and the 2KE mutant of GST-NRG1 (175-222) were immobilized to wells of 96-well titer plates. The concentrations of the coating solution are shown. Soluble recombinant integrin αvβ3 (5 μg/ml) was added to the wells in the presence of 1 mM Mn^2+ and incubated for 2 h at room temperature. After washing, the wells bound αvβ3 was determined by using anti-β3 antibody and HRP-conjugated anti-mouse IgG. The data are shown as means+/−SD of triplicate experiments. […] Direct αvβ3-NRG (175-222) interaction: It has been well established that the EGF-like domain of the NRGs is sufficient to specifically activate ErbB receptors and to induce cellular responses in culture. To generate GST-NRG1 EGF-like domain fusion protein, the cDNA fragment of the EGF-like domain of NRG1 was amplified by PCR and subcloned into PGEX-2T vector to generate GST-NRG1 EGF-like domain fusion protein (designated GST-NRG1 (175-222)) in E. coli BL21. The fusion protein was purified in glutathione-affinity chromatography. The affinity resin was extensively washed with 1% Triton X-114 to remove endotoxin before eluting the protein. It was tested, in the present invention, whether soluble recombinant integrin αvβ3 binds to GST-NRG1 (175-222) that is immobilized to plastic wells (ELISA-type assay). […] Cell adhesion and soluble integrin binding assays were performed as described previously (Mori, et al., 2008). NRG1α (175-241) was immobilized to wells of 96-well microtiter plate overnight at 4° C. in 0.1 M carbonate buffer, pH 2 9.4. Remaining protein binding sites were blocked by incubating with 200 μl of 0.1% BSA in PBS for 60 min at room temperature. Wells were then incubated with soluble integrin αvβ3 in 50 μl in Hepes-Tyrode's buffer supplemented with 1 mM Mn2+ at room temperature for 60 min. After rinsing the wells with the same buffer, bound integrins were determined by horseradish peroxidase (HRP)-conjugated anti-His tag mouse IgG and substrate 3,3′,5,5′-tetramethylbenzidine of HRP.

[2] = biological target: T3, CHO cells expressing β1-3-1 (β1-3-1-CHO cells) (Homo sapiens, UniProt P05556, DEL209-212/INS207YDMKT); test: Cell adhesion assay, β1-3-1-CHO cells; assay type: cell-based
T3 construct: expressed in transfected cells; host or cells: CHO
Description: FIG. 3. Adhesion of CHO cells that express human β1 (β1-CHO) or β1-3-1 (β1-3-1-CHO) to wt NRG1 (175-222). The β1-3-1 mutation changes the specificity of β1 integrins to that of β3 integrins. Cell adhesion was performed as described herein. β1-3-1-CHO cells adhered to wt NRG1 (175-222) and this binding was blocked by anti-human β1 antibody AIIB2, but not by purified mouse IgG (mIgG). BSA: BSA as a control was coated instead of NRG1 (175-222).
FIG. 6. […] Adhesion assays was performed using β1-3-1-CHO cells as described herein. Data are shown as means+/−SEM of triplicate experiments.
The β1-3-1 mutation: To determine if NRG1 (175-222) binds to αvβ3 like other known αvβ3 ligands (e.g., vitronectin and fibrinogen), a mutant of β1 having a ligand specificity of β3 (Takagi et al. 1997) was used. […] It was shown that when a disulfide-linked five-residue sequence of β1 I-like domain (residues 177-183) of αvβ1 is switched with a corresponding sequence in β3 integrin (designated the β1-3-1 mutant), ligand-binding specificity of the mutated integrin αvβ1-3-1 is altered to that of αvβ3 (Takagi et al. 1997). […] The adhesion of β1-3-1-CHO cells to NRG1 (175-222) was blocked anti-β1 antibody AIIB2 (FIG. 3). […] These findings indicate that NRG1 (175-222) binds to the ligand-binding site of αvβ3, and that the specificity loop plays a role in NRG1 binding to αvβ3.
as §1

[3] = tested on: integrin β3 cytoplasmic domain; test: Tyr-phosphorylation of integrin β3 cytoplasmic domain in M21 cells, Western blotting; assay type: cell-based, human; settings: 10 ng/ml, serum-starved, 30 min
Description: FIG. 13. Wt NRG1 (175-222) enhanced Tyr-phosphorylation of the integrin β3 cytoplasmic domain, while 3KE (175-222) suppressed it in M21 cells. Serum-starved M21 cells were stimulated with 10 ng/ml wt or 3KE NRG1 (175-222). Tyr-phosphorylation of β3 was determined by Western blotting of cell lysates.
It has recently been reported that Tyr phosphorylation of the β3 tail plays a role in VEGF and insulin-like growth factor-1 (IGF1) (Clemmons et al. 2007; Mahabeleshwar et al. 2007). It was tested if NRG1 signaling requires Tyr-phosphorylation of the β3 tail in M21 cells. As shown here, the β3 tail is constitutively Tyr-phosphorylated in serum-starved cells.

T1 sequence (P06756 31-1048): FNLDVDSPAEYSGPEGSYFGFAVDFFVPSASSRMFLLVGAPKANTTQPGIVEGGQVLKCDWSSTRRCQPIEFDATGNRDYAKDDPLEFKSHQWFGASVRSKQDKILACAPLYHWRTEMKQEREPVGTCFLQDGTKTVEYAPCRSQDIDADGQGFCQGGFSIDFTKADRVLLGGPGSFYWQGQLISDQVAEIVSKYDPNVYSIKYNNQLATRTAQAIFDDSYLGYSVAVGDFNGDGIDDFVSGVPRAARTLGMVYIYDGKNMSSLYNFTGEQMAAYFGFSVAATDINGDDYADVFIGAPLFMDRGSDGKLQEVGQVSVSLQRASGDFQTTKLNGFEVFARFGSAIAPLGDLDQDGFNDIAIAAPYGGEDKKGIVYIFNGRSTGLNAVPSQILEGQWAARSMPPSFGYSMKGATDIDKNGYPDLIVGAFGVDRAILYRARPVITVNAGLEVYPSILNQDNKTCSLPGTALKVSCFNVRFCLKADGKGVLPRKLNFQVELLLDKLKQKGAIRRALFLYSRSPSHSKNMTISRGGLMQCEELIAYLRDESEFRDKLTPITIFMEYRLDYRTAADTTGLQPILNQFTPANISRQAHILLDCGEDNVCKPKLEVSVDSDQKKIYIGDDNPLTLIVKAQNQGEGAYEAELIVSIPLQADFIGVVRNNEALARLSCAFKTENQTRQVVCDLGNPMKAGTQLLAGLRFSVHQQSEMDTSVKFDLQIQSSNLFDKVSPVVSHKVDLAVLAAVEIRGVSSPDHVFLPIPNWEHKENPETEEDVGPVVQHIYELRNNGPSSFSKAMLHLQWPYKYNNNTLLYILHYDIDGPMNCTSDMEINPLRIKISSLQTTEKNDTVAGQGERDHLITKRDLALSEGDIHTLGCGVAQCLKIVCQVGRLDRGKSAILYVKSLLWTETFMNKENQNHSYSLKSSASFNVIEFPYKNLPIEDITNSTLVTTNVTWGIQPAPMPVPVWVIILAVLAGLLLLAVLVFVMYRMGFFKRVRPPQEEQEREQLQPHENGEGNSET
T1 sequence (P05106 27-788): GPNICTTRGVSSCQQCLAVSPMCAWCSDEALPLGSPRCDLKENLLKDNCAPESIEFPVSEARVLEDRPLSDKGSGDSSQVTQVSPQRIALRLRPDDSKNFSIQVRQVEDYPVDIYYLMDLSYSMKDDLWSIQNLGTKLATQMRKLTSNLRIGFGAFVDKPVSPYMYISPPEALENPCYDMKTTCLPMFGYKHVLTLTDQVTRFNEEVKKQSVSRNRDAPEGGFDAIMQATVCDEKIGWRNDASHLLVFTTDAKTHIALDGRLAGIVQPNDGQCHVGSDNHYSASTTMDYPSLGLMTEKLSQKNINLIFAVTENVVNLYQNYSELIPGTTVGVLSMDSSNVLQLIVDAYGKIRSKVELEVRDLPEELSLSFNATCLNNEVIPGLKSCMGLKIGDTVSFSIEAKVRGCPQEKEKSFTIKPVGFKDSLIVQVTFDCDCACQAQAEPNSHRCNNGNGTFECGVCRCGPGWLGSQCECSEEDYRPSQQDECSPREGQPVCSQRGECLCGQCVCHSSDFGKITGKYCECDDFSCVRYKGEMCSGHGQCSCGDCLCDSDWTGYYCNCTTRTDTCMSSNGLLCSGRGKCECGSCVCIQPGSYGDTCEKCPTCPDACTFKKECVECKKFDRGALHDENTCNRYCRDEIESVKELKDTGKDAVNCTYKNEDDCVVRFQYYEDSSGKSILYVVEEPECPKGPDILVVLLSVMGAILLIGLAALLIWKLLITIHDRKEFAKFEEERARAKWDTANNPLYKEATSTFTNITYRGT
T2 sequence (P06756 31-992 limits assumed): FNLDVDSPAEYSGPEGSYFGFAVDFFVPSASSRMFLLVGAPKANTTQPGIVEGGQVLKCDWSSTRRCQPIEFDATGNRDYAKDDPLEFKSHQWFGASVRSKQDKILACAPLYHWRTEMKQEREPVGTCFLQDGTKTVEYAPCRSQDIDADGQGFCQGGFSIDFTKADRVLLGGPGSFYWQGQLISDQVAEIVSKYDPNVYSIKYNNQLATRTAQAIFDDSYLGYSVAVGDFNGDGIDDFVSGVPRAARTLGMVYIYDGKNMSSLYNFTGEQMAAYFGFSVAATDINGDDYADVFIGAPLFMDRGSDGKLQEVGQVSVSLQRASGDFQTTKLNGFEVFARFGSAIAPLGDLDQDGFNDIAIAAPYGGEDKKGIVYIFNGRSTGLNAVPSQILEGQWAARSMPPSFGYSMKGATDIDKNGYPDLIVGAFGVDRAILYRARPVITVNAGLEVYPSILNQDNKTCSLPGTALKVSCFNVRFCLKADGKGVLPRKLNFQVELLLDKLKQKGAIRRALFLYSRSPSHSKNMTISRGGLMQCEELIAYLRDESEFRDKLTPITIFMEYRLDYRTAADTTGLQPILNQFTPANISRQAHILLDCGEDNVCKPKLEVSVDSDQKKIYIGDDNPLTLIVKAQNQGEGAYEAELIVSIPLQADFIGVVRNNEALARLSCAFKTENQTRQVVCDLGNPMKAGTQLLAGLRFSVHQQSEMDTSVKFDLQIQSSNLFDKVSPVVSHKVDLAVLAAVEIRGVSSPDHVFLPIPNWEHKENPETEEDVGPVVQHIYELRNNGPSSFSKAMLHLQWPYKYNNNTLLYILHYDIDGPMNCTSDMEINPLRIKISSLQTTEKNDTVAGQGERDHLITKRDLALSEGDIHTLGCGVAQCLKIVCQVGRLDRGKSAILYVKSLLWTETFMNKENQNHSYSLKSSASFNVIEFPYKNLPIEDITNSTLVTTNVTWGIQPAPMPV
T2 sequence (P05106 27-718 limits assumed): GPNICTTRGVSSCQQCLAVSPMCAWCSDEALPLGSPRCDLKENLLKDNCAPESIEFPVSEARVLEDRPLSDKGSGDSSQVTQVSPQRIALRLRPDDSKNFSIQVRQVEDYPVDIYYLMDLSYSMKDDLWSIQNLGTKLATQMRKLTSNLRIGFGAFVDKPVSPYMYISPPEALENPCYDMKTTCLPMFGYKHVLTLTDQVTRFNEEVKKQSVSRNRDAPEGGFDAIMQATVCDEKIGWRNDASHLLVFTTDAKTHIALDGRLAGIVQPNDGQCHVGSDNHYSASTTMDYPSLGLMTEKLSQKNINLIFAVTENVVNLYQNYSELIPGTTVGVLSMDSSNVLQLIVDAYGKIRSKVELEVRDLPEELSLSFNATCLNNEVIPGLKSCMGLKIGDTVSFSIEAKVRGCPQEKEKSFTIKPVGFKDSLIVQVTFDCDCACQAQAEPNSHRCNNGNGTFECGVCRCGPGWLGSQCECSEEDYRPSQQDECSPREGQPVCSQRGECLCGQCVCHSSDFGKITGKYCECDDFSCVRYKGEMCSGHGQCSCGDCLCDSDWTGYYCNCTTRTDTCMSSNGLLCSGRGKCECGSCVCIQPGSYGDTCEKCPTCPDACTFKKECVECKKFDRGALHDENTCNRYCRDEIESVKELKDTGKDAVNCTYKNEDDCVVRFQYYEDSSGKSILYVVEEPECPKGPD
T3 sequence (P05556 with tags, fused parts or gaps INS207YDMKT/DEL209-212): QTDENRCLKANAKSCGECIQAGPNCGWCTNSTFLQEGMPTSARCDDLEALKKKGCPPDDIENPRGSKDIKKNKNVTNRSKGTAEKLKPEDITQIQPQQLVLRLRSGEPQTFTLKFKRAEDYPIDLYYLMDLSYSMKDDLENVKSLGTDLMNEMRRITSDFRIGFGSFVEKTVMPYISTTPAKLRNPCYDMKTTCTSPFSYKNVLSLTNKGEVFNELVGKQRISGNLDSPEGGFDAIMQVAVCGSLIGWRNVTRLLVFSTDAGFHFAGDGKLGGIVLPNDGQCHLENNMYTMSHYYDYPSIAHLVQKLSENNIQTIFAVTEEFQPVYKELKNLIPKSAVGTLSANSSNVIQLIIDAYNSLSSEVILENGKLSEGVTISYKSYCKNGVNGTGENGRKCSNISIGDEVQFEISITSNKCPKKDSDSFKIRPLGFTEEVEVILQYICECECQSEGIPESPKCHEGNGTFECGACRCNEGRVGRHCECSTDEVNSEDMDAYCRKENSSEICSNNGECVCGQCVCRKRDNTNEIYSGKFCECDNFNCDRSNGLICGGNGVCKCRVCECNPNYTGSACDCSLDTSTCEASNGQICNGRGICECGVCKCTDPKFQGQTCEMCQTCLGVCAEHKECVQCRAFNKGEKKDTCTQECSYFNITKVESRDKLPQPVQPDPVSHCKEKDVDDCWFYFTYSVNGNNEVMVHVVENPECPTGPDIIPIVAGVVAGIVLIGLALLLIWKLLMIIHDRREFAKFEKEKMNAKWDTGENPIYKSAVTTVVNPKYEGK

| Molecule | Adhesion of αvβ3-K562 cells to the immobilized protein [1] | Binding of soluble recombinant integrin αvβ3 to the immobilized protein (integrin αvβ3) | Adhesion of β1-3-1-CHO cells to the immobilized protein [2] | Tyr-phosphorylation of the integrin β3 tail in M21 cells [3] | Adhesion of αvβ3-K562 cells to the immobilized protein ([1]; listed as NRG1 (175-222)) | Binding of soluble recombinant integrin αvβ3 to the immobilized protein (integrin αvβ3; listed as NRG (175-222)) | Adhesion of αvβ3-K562 cells to the immobilized protein ([1]; listed as NRG1α (175-241)) | Adhesion of αvβ3-K562 cells to the immobilized protein ([1]; listed as wt NRG1α (175-241)) | Adhesion of β1-3-1-CHO cells to the immobilized protein ([2]; listed as NRG1α (175-241)) | Adhesion of β1-3-1-CHO cells to the immobilized protein ([2]; listed as wt NRG1α (175-241)) |
| --- | --- | --- | --- | --- | --- | --- | --- | --- | --- | --- |
| 3KE (175-222): NRG1 (175-222) with Lys181/Lys185/Lys187 mutated to Glu; GTSHLVECAEEEETFCVNGGECFMVKDLSNPSRYLCKCQPGFTGARCT (SEQ ID NO:11) (integrin-binding site within human neuregulin, 3KE mutant, short version) | did not bind; also recorded: defective in binding to αvβ3-K562 cells | bound to the 3KE (175-222) mutant (isolated EGF-like domain) in a dose-dependent manner; also recorded: much lower affinity to αvβ3 | defective in binding to β1-3-1 integrins | suppressed it | – | – | – | – | – | – |
| wt NRG1 (175-222): wild type human neuregulin 1 fragment, EGF-like domain, residues 175-222 of SEQ ID NO:4 (SEQ ID NO:3) (GTSHLVKCAEKEKTFCVNGGECFMVKDLSNPSRYLCKCQPGFTGARCT; integrin-binding site within human neuregulin 1 EGF-like region and portion of alpha domain, residues 175-222 of human neuregulin 1 alpha) [reference compound] | bound to wt NRG1 (175-222) | – | bound to NRG1 (175-222) | enhanced levels of Tyr-phosphorylation | adhered in a dose-dependent manner | bound to recombinant soluble αvβ3 | – | – | – | – |
| B1 | – | bound to GST-NRG1α (175-241) (isolated EGF-like domain) in a dose-dependent manner | – | – | – | – | adhered in a dose-dependent manner | bound to wt NRG1α (175-241) | bound to NRG1α (175-241) | bound to wt NRG1α (175-241) |
| B2 | little or no adhesion | – | little or no adhesion | – | – | – | – | – | – | – |
